Several values for one entry are separate records, joined by “and”; a condition that tells them apart may be missing. Equal values may be shown once. Each block holds one molecule with its values, some of them ahead of it.
Assays:
[1] = target: ComEAGs-OD (oligomerization domain of ComEAGs alone, codons 60-122) (Geobacillus stearothermophilus (ATCC 7953)); assay: AUC; sedimentation velocity, ComEAGs-OD at 12.7 μM, 37 krpm, 20 °C, 10 mM Tris pH 8, 100 mM KCl
[2] = target: ComEAGs (ComEA from Geobacillus stearothermophilus, codons 60-207) (Geobacillus stearothermophilus (ATCC 7953)); assay: AUC; sedimentation velocity, ComEAGs at 157 μM, 20 °C, 10 mM Tris pH 8, 100 mM KCl, 60 krpm
[3] = target: ComEAGs (ComEA from Geobacillus stearothermophilus, codons 60-207) (Geobacillus stearothermophilus (ATCC 7953)); assay: AUC; sedimentation velocity, ComEAGs at 31.3 μM (280 nm), fitted to a discrete monomer-dimer equilibrium model (genetic algorithm Monte Carlo); dimer to monomers; apparent; 20 °C, 10 mM Tris pH 8, 100 mM KCl
[4] = target: the molecule itself; assay: AUC; sedimentation velocity of 31.3 uM ComEAGs, measured at 280 nm, 60 krpm, 20 °C, 10 mM Tris pH 8, 100 mM KCl; fitted to a discrete monomer-dimer reversibly self-associating model by genetic algorithm Monte Carlo analysis (96 iterations); dimer to monomers
[5] = target: the molecule itself; assay: AUC; sedimentation velocity of ComEAGs-OD at 196 uM, 37 krpm, 20 °C, 10 mM Tris pH 8, 100 mM KCl; molar mass distribution
[6] = target: the molecule itself; assay: crystal structure; ComEABs crystals, 22% PEG 500, 0.1 M succinate pH 5.5, 20 °C; 3.20 Å
[7] = target: T1, ComEAGs wild-type (Geobacillus stearothermophilus (ATCC …, UniProt A0A0K9HI54 60-207)); assay: EMSA; 0.5 uM DNA, 1 mM MgCl2; cooperative; MW-AUC: 10 mM Tris pH 8, 100 mM KCl, 20 C; EMSA: 10 mM Tris pH 8, 100 mM KCl, 2.5% glycerol, 0.5 mM EDTA, 1 mM MgCl2, room temperature 15 min, 8% native gel in; settings: protein: recombinant; blunt
T1 sequence: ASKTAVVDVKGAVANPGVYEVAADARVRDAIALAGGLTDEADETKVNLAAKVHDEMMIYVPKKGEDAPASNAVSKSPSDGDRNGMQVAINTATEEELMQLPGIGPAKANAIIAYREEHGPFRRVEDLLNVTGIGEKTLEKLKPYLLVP

[8] = target: T1, ComEAGs wild-type; assay: MW-AUC; 1.5 uM DNA, 5:1 and 10:1 protein:DNA; >90% DNA bound; ~3:1 complex, 3.9-4.0 S; MW-AUC: 10 mM Tris pH 8, 100 mM KCl, 20 C; EMSA: 10 mM Tris pH 8, 100 mM KCl, 2.5% glycerol, 0.5 mM EDTA, 1 mM MgCl2, room temperature 15 min, 8% native gel in; settings: protein: recombinant; blunt
[9] = target: T1, ComEAGs wild-type; assay: MW-AUC; 1.5 uM DNA, 10:1 protein:DNA; >90% DNA bound; ~7:1 complex, 8.1 S; MW-AUC: 10 mM Tris pH 8, 100 mM KCl, 20 C; EMSA: 10 mM Tris pH 8, 100 mM KCl, 2.5% glycerol, 0.5 mM EDTA, 1 mM MgCl2, room temperature 15 min, 8% native gel in; settings: protein: recombinant; blunt

- stoichiometry N [1]: 2
Molecule: ComEAGs-OD (oligomerization domain of ComEAGs alone, codons 60-122) (domain or fragment)

- Kd [2]: 10 to 160 µM
- stoichiometry N [2]: 2
- Kd [3]: 33.8 µM
Molecule: ComEAGs (ComEA from Geobacillus stearothermophilus, codons 60-207) (domain or fragment)

B1: ComEA from Geobacillus stearothermophilus, residues 60-207 (domain or fragment)
chain: T1 sequence
notes: ComEA, Geobacillus stearothermophilus (ATCC 7953), codons 60-207 (without the N-terminal transmembrane region); also called ComEAGs; wild-type ComEAGs; source: E. coli BL21(DE3), purified (His-60 Ni resin, Source 15Q, Hitrap Heparin, Superdex200); not shown: His-Sumo, N-terminal, cleaved
- koff [4]: 5.27e-05 s⁻¹

B2: ComEAGs oligomerization domain alone, residues 60-122 (domain or fragment, Geobacillus stearothermophilus)
chain: ASKTAVVDVKGAVANPGVYEVAADARVRDAIALAGGLTDEADETKVNLAAKVHDEMMIYVPKK
notes: ComEA, Geobacillus stearothermophilus (ATCC 7953), codons 60-122 (oligomerization domain); also called ComEAGs-OD; ComEA-OD; source: E. coli BL21(DE3), purified by the same protocol as wild-type ComEAGs; not shown: His-Sumo, N-terminal, cleaved
- stoichiometry N [5]: 4 and > 4

B3: ComEABs (ComEA from Bacillus subtilis, codons 58-205) (domain or fragment, B. subtilis strain 168, UniProt P39694 58-205, looked up)
chain: SNETIVIDIKGAVQHPGVYEMRTGDRVSQAIEKAGGTSEQADEAQVNLAEILQDGTVVYIPKKGEETAVQQGGGGSVQSDGGKGALVNINTATLEELQGISGVGPSKAEAIIAYREENGRFQTIEDITKVSGIGEKSFEKIKSSITVK
notes: ComEA, Bacillus subtilis strain 168, codons 58-205 (lacks the N-terminal transmembrane region); source: E. coli BL21, purified (His-60 resin, Source 15Q, Superdex200); not shown: His6, C-terminal, kept
- binding result [6]: binds

B4: EAGs30bp (dsDNA)
DNA 1: GCACTGTGAATATCACTACAGCAACCTTAG
DNA 2: CTAAGGTTGCTGTAGTGATATTCACAGTGC
- binding result [7]: binds

B5: EAGs14bp (dsDNA)
DNA 1: GTAGGACCATCTGC
DNA 2: GCAGATGGTCCTAC
- binding result [8]: binds

B6: EAGs40bp (dsDNA)
DNA 1: CGTTAGCACTGTGAATATCACTACAGCAACCTTAGAATCG
DNA 2: CGATTCTAAGGTTGCTGTAGTGATATTCACAGTGCTAACG
- binding result [9]: binds
